Test results from patent US20180339042A1.

How the values were obtained:
[1] = molecular target: human GITR, membrane bound (human) (UniProt Q9Y5U5); assay: cell-based or functional assay
activated T cells = activated T cells (UniProt Q9Y5U5); assay: FACS binding, activated T cells; isotype control
Chain of activated T cells (Q9Y5U5 26-241): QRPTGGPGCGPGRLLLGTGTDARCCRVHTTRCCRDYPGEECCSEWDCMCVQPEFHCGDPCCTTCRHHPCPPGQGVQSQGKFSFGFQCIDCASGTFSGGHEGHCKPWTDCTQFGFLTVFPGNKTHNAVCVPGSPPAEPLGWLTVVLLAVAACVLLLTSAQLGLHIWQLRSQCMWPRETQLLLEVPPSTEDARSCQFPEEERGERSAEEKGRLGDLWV

Chain of human GITR, membrane bound (human) (Q9Y5U5 26-241): as above

Row | Substance | NFKB signaling (phospho-p65), CD4+ T cells, Emax (%) [1] | NFKB signaling (phospho-p65), CD8+ T cells, Emax (%) [1] | EC50 (activated T cells)
1 | hIgG1 Isotype Control (antibody) | 4% | 6% | 
2 | unrelated hIgG1 |  |  | 132 nM
3 | unrelated hIgG2 |  |  | 6.72 nM
